The experiment addresses T1, HA-GCM1 (UniProt Q9NP62 1-436).
T1 construct: Expressed in transfected 293T or Hep3B cells; also called glial cells missing 1; pHA-GCM1; not shown: N-terminal HA tag
T1 sequence (looked up): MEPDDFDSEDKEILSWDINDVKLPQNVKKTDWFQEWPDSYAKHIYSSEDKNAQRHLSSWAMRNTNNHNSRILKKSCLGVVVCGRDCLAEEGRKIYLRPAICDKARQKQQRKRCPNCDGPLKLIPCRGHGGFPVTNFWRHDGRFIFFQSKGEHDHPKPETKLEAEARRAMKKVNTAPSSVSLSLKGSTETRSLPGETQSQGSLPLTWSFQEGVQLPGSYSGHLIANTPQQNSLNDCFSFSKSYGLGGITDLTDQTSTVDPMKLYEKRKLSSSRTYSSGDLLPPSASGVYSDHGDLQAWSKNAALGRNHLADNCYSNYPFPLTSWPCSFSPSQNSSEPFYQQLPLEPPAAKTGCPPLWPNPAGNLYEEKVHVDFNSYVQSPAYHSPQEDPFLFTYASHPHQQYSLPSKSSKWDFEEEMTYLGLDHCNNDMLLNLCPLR
The experiment is described as follows: co-immunoprecipitation with HA and FLAG mAbs in transfected 293T cells. The source says:
293T cells were transfected with different combinations of pΔNp63α-FLAG, pOVOL1-FLAG, and pHA-GCM1 for co-immunoprecipitation analysis with HA and FLAG mAbs. […] 293T cells were transfected with pHA-GCM1 and different pΔNp63α-FLAG plasmids encoding full-length or deletion mutant ΔNp63α-FLAG proteins, followed by co-immunoprecipitation analysis with HA and FLAG mAbs. Schematic representation of functional domains in ΔNp63α is presented. DBD: DNA-binding domain; OD: oligomerization domain; SAM: sterile alpha motif; TID: transactivation inhibitory domain. In a separate experiment, 293T cells were transfected with pΔNp63α-HA and pGAL4-FLAG or different pGAL4-GCM1-FLAG plasmids encoding full-length or deletion mutant GAL4GCM1-FLAG proteins for co-immunoprecipitation analysis with HA and FLAG mAbs. Schematic representation of functional domains in GCM1 is presented. TAD: transactivation domain. […] Glutathione-conjugated agarose beads pre-bound with GST, GST-SAM or GST-OD were incubated with recombinant GCM1-FLAG protein in pull-down assays. […] Mock and ΔNp63α-FLAG-expressing BeWo cells were subjected to immunoblotting (left) and quantitative RT-PCR (right) analyses of GCM1, HTRA4, and hCGβ proteins and transcripts. […] BeWo cells stably expressing scramble or GCM1 shRNA were subjected to immunoblotting (left) and quantitative RT-PCR (right) analyses of GCM1 and ΔNp63α proteins and transcripts.

B1: OVOL1-FLAG (other, human, UniProt O14753 1-267, looked up)
chain: MPRAFLVKKPCVSTCKRNWSELPDEERGEIYVPVSLGFCPPQPYREPEPSVAEPPSCPLALNMSLRDSSYSMAPGPCVVAQLPSEDMGHLTDPQSRDHGFLRTKMKVTLGDSPSGDLFTCRVCQKAFTYQRMLNRHMKCHNDVKRHLCTYCGKGFNDTFDLKRHVRTHTGVRPYKCSLCDKAFTQRCSLESHLKKIHGVQQKYAYKERRAKLYVCEECGCTSESQEGHVLHLKEHHPDSPLLRKTSKKVAVALQNTVTSLLQGSPHL
notes: also called pOVOL1-FLAG; pOVOL-1-FLAG; not shown: C-terminal FLAG tag
With B1, the binding result is “no binding”.
